We go through one molecule from publication PMC10037368 (2023).

In the assay the target is Spike glycoprotein (Wuhan-Hu-1) RBD (Severe acute respiratory syndrome …, UniProt P0DTC2). As to the kind of experiment: ELISA. In general terms: In an ELISA, binding on a coated surface is turned into a signal by an enzyme label.

B1: Sb92 sherpabody (designed binder)
chain: EEYIAVGDFFSTDPADLTFKKGEILLVIERGTSAGDGWWIAKDAKGNEGLVPRTYLEPYS
B1 gave a Kd of 0.03 µM.

The Kd is the constant that tells how readily two partners part at equilibrium. A low value points to a tighter complex.
